Assay results published in patent US20220251222A1 (Johns Hopkins, published 2022).

T1: human IL-6Rα extracellular domain (ECD), residues 89-303 of the mature protein, with C-terminal biotin … (human, UniProt P08887 108-322, biotinylated with BirA ligase on the biotin acceptor peptide)
T1 construct: range 89-303; The range 89-303 counts on the mature protein, not on the precursor; Any linkers between the ECD, BAP and His tag are not described; also called IL-6Rα ECD; recombinant IL-6Rα
T1 sequence: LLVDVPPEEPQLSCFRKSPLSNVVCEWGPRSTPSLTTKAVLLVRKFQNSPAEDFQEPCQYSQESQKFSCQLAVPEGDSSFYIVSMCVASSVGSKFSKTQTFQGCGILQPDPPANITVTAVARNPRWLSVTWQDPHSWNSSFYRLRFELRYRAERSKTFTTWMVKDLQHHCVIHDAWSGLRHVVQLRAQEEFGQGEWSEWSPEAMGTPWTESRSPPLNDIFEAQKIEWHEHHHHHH

T2: IL-8RB expressed on lentivirally transduced HEK 293T cells (UniProt P25025 1-360, limits assumed)
T2 construct: whole, on cells; also called IL-8R^+ cells; IL-6Rα^-/IL-8R^+ HEK 293T cells
T2 sequence (looked up): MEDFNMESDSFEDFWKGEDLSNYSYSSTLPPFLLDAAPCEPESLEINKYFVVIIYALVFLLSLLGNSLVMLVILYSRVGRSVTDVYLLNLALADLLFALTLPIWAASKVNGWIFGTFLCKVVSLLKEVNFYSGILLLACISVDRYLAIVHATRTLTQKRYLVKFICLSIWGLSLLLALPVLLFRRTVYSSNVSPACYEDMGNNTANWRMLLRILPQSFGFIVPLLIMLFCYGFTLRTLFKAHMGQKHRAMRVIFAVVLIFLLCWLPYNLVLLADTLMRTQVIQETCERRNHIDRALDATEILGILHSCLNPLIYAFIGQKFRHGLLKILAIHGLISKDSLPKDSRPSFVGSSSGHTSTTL

B1: tocilizumab, recombinant monoclonal hIgG1 (anti-IL-6Rα) (antibody, V domains shown)
VH: EVQLQESGPGLVRPSQTLSLTCTVSGYSITSDHAWSWVRQPPGRGLEWIGYISYSGITTYNPSLKSRVTMLRDTSKNQFSLRLSSVTAADTAVYYCARSLARTTAMDYWGQGSLVTVSS
VL: DIQMTQSPSSLSASVGDRVTITCRASQDISSYLNWYQQKPGKAPKLLIYYTSRLHSGVPSRFSGSGSGTDFTFTISSLQPEDIATYYCQQGNTLPYTFGQGTKVEIK
notes: also called anti-IL-6Rα antibody
B2: BS2 bispecific antibody (scFv-IgG fusion: 10H2 IgG with tocilizumab scFv on the light chains) (bispecific antibody)
heavy: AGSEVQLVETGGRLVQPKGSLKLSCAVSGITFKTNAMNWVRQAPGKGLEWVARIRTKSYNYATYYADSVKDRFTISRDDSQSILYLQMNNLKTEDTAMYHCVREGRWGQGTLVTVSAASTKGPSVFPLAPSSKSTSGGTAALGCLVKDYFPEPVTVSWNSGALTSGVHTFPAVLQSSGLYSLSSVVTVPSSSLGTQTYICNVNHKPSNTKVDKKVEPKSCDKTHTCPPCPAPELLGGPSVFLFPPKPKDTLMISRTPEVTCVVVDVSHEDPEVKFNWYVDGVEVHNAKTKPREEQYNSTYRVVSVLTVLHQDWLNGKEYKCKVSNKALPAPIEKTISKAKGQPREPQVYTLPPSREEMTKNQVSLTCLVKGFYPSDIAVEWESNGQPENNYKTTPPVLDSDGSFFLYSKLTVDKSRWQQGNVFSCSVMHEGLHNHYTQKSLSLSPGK
light: AGSQAVVTQESALTTSPGETVTLTCRSSTGAVTTSNYANWVQEKPDHLFTGLIGGTNNRPPGVPARFSGSLIGDKAALTITGAQIEDEAIYFCALWYSNHLVFGGGTKLTVLRTVAAPSVFIFPPSDEQLKSGTASVVCLLNNFYPREAKVQWKVDNALQSGNSQESVTEQDSKDSTYSLSSTLTLSKADYEKHKVYACEVTHQGLSSPVTKSFNRGECGGGGSGGGGSEVQLQESGPGLVRPSQTLSLTCTVSGYSITSDHAWSWVRQPPGRGLEWIGYISYSGITTYNPSLKSRVTMLRDTSKNQFSLRLSSVTAADTAVYYCARSLARTTAMDYWGQGSLVTVSSGGGGSGGGGSGGGGSDIQMTQSPSSLSASVGDRVTITCRASQDISSYLNWYQQKPGKAPKLLIYYTSRLHSGVPSRFSGSGSGTDFTFTISSLQPEDIATYYCQQGNTLPYTFGQGTKVEIK
notes: Human IgG1-based

Experiments:
[1] = molecular target: T1, human IL-6Rα extracellular domain …; experiment: BLI equilibrium titration, biotinylated IL-6Rα ECD on streptavidin tips; bivalent IgG, BLI on recombinant IL-6Rα
Description: Biotinylated human IL-6Rα ECD was immobilized to streptavidin-coated tips for analysis on an Octet® Red96 BLI instrument (ForteBio). Less than 5 signal units (nm) of receptor was immobilized to minimize mass transfer effects. Tips were exposed to serial dilutions of the anti-IL-6R antibody tocilizumab, the anti-IL-8R antibody 10H2, BS1, or BS2 in a 96-well plate for 300 s and dissociation was measured for 600 s. Surface regeneration for all interactions was conducted using 15 s exposure to 0.1 M glycine pH 3.0. Experiments were carried out in PBSA (phosphate-buffered saline [PBS] pH 7.3 plus 0.1% bovine serum albumin [BSA, Thermo]) at 25° C. Data was visualized and processed using the Octet® Data Analysis software version 7.1 (ForteBio). Equilibrium titration curve fitting and equilibrium dissociation constant (KD) value determination was implemented in GraphPad Prism software using a first-order logistic model. Experiments were reproduced two times with similar results.
To confirm functionality of our bispecific agents, antibodies were titrated against recombinant IL-6Rα via BLI. […] Moreover, both tocilizumab-containing engineered bispecific binding agents also bound IL-6Rα (FIG. 5).

[2] = molecular target: T2, IL-8RB expressed on lentivirally …; experiment: competition with 400 nM His-tagged IL-8 on IL-6Rα-/IL-8R+ HEK 293T cells, flow cytometry
Description: IL-6Rα⁺/IL-8R⁻ and IL-6Rα⁻/IL-8R⁺ HEK 293T cells were cultured as previously described, and were trypsinized, resuspended in PBSA, and aliquoted into 96-well plates (2×10⁵ cells per well). IL-6Rα⁺/IL-8R⁻ 293T cells were incubated with titrations of various monoclonal or bispecific antibodies in the presence of saturating concentration of biotinylated IL-6 (100 nM) (Acro Biosystem, cat #: IL6-H8218-25UG) for 2 hr at 4° C. with rotation. Cells were then washed and incubated with 1:200 dilution of Alexa Fluor 647-conjugated streptavidin (Fisher Scientific, cat #: S21374) in PBSA for 15 min at 4° C. After a final wash, cells were resuspended in PBSA and analyzed on a CytoFLEX flow cytometer (Beckman Coulter). Curves were fitted to a first-order logistic model and IC₅₀ values were calculated using GraphPad Prism data analysis software. Mean fluorescence intensity (MFI) of unstimulated cells was subtracted. Similarly, IL-6Rα⁻/IL-8R⁺ 293T cells were incubated with titrations of various monoclonal or bispecific antibodies with saturating concentration of His-tagged IL-8 (400 nM) (Sino Biological, cat #: 10098-H08Y-100) for 2 hr at 4° C. with rotation. […] After a final wash, cells were resuspended in PBSA and analyzed on a CytoFLEX flow cytometer (Beckman Coulter). Curves were fitted to a first-order logistic model and IC₅₀ values were calculated using GraphPad Prism data analysis software. […]

Binder	Kd [1]	IC50 [2]
B1	28 nM	–
B2	–	22 nM
